Entries after “also recorded” stand apart in the source; their conditions may differ. Peptide text beside a SMILES is read from it. * marks the point of attachment. X1 = CCc1c2c(nc3ccc(OC(=O)[C@H]4CC[C@H](CNC(=O)[C@H]5CC[C@H](CN6C(=O)CC(*)C6=O)CC5)CC4)cc13)-c1cc3c(c(=O)n1C2)COC(=O)[C@]3(O)CC
Tests used:
[1] = Solubility in water; format: physicochemical
[2] = test system: dog basophils; conditions: in vitro, preclinical, ref not given; cited from earlier work
[3] = dogs, 4.5–53 mg free base/kg; preclinical, ref not given; cited from earlier work
[4] = Phase I dose escalation: toxicity; format: in vivo, human; conditions: for Other toxicities: Type of toxicity and grade: UR unrelated, R probably related
[5] = test system: advanced or metastatic solid tumors; experiment: Tumor response; format: in vivo, human
[6] = test system: human basophils; conditions: in vitro, preclinical, ref not given; cited from earlier work
[7] = Phase I plasma pharmacokinetics of DTS-108, SN-38 and SN-38G; format: in vivo; conditions: human, iv
[8] = test system: cardiac repolarization; experiment: Cardiovascular effects: QRS and QTc intervals; format: in vivo, human
[9] = dose 313 mg/m^2, Hyperbilirubinemia (UR)
[10] = drug-related, repeated dosing, all doses, n=42

## CCc1c2c(nc3ccc(OC(=O)[C@H]4CC[C@H](CNC(=O)[C@H]5CC[C@H](CN6C(=O)CC(SC[C@H](N)C(=O)N[C@H](C(=O)N[C@@H](CCCCN)C(=O)N[C@@H](CCCNC(=N)N)C(=O)NCC(=O)N[C@@H](CC(C)C)C(=O)N[C@@H](CCCCN)C(=O)N[C@@H](CC(C)C)C(=O)N[C@@H](CCCNC(=N)N)C(=O)N[C@@H](Cc7c[nH]cn7)C(=O)N[C@H](C(=O)N[C@@H](CCCNC(=N)N)C(=O)N7CCC[C@H]7C(=O)N[C@@H](CCCNC(=N)N)C(=O)N[C@H](C(=O)N[C@H](C(=O)N[C@@H](CCCNC(=N)N)C(=O)N[C@@H](CCSC)C(=O)N[C@@H](CC(=O)O)C(=O)N[C@H](C(=O)O)C(C)C)[C@@H](C)O)C(C)C)C(C)C)C(C)C)C6=O)CC5)CC4)cc13)-c1cc3c(c(=O)n1C2)COC(=O)[C@]3(O)CC (stereo partly drawn) [DTS-108] (H-C(X1)VKRGLKLRHVRPRVTRMDV-OH)
[1]
  solubility in water: highly soluble
[2]
  histamine release: histamine release induced
[3]
  resolution of immediate effects resembling an infusion reaction: resolved spontaneously within a few hours
  severity of immediate effects resembling an infusion reaction: moderate severity
[4]; 235 mg/m^2
  patients with Grade 3 neutropenia: one of four
[4]; 313 mg/m^2
  patients with Grade 3 neutropenia: four of six
  patients with no dose-limiting neutropenia: five of the six
[4]; 416 mg/m^2
  patients with Grade 3 neutropenia: four of six
  patients with dose reductions to 313 mg/m^2: three of six
  patients with grade 4 neutropenia: three out of six
[4]; Cohort 11, 177 mg/m^2
  patients with infusion reactions: all three
[4]; all doses
  nephrotoxicity: no evidence of nephrotoxicity
[4]; cycle 1
  dose-limiting toxicity (DLT): Neutropenia
[4]; dose 32 mg/m^2, Hyperbilirubinemia (UR)
  Other toxicities Grades 1–2, patients: 1
[4]; dose 32 mg/m^2, Respiratory and thoracic disorder (UR)
  Other toxicities Grades 1–2, patients: 1
[4]; dose 32 mg/m^2
  Other toxicities: Type of toxicity and grade: Respiratory and thoracic disorder (UR); also recorded: Hyperbilirubinemia (UR)
[4]; dose 42 mg/m^2, Retroperitoneal hematoma (UR)
  Other toxicities Grades 1–2, patients: 1
[4]; dose 42 mg/m^2
  Other toxicities: Type of toxicity and grade: Retroperitoneal hematoma (UR)
[4]; dose 56 mg/m^2, Acute pancreatitis (UR)
  Other toxicities Grades 1–2, patients: 1
[4]; dose 56 mg/m^2, Hyperbilirubinemia (UR)
  Other toxicities Grades 1–2, patients: 1
[4]; dose 56 mg/m^2
  Other toxicities: Type of toxicity and grade: Acute pancreatitis (UR); also recorded: Hyperbilirubinemia (UR)
[4]; dose 75 mg/m^2, 3 patients
  Neutropenia All grades, patients: 1
[4]; dose 100 mg/m^2, 3 patients
  Neutropenia All grades, patients: 1
[4]; dose 100 mg/m^2, Complete left lung atelectasy (UR)
  Other toxicities Grades 1–2, patients: 1
[4]; dose 100 mg/m^2
  Other toxicities: Type of toxicity and grade: Complete left lung atelectasy (UR)
[4]; dose 133 mg/m^2, 4 patients
  Neutropenia All grades, patients: 3
[4]; dose 133 mg/m^2, Hyperbilirubinemia (UR)
  Other toxicities Grades 1–2, patients: 1
[4]; dose 133 mg/m^2
  Other toxicities: Type of toxicity and grade: Hyperbilirubinemia (UR)
[4]; dose 177 mg/m^2, 3 patients
  Neutropenia All grades, patients: 1
[4]; dose 177 mg/m^2
  Other toxicities: Type of toxicity and grade: Vomiting (R), diarrhea (R), and nausea (R)
[4]; dose 177 mg/m^2, Vomiting (R), diarrhea (R), and nausea (R)
  Other toxicities Grades 1–2, patients: 1
[4]; dose 236 mg/m^2, 4 patients
  Neutropenia All grades, patients: 1
  Neutropenia Grades 3–4, patients: 1
[4]; dose 236 mg/m^2, Edema of lower limb (UR)
  Other toxicities Grades 1–2, patients: 1
[4]; dose 236 mg/m^2
  Other toxicities: Type of toxicity and grade: Edema of lower limb (UR); also recorded: Vomiting (R) and diarrhea (R)
[4]; dose 236 mg/m^2, Vomiting (R)
  Other toxicities Grades 1–2, patients: 1
[4]; dose 236 mg/m^2, Vomiting (R) and diarrhea (R)
  Other toxicities Grades 3–4, patients: 1
[4]; dose 313 mg/m^2, 6 patients
  Neutropenia All grades, patients: 6
  Neutropenia Grades 3–4, patients: 4
[4]; dose 313 mg/m^2, Diarrhea (R)
  Other toxicities Grades 3–4, patients: 1
[4]; [9]
  Other toxicities Grades 1–2, patients: 1
  Other toxicities Grades 3–4, patients: 1
[4]; dose 313 mg/m^2
  Other toxicities: Type of toxicity and grade: Diarrhea (R); also recorded: Hyperbilirubinemia (UR)
[4]; dose 416 mg/m^2, 6 patients
  Neutropenia All grades, patients: 6
  Neutropenia Grades 3–4, patients: 4
[4]; dose 416 mg/m^2
  Other toxicities: Type of toxicity and grade: Vomiting (UR), pyrexia (UR), and chills (R)
[4]; dose 416 mg/m^2, Vomiting (UR), pyrexia (UR), and chills (R)
  Other toxicities Grades 1–2, patients: 1
[4]; [10]
  Abdominal pain: Number of patients with ≥1 adverse event: 8
  Abdominal pain: Total (%): 19.0%
  Alanine aminotransferase elevation increased: Number of patients with ≥1 adverse event: 5
  Alanine aminotransferase elevation increased: Total (%): 11.9%
  Alopecia: Number of patients with ≥1 adverse event: 8
  Alopecia: Total (%): 19.0%
  Anemia: Number of patients with ≥1 adverse event: 13
  Anemia: Total (%): 31.0%
  Anorexia: Number of patients with ≥1 adverse event: 9
  Anorexia: Total (%): 21.4%
  Ascites: Number of patients with ≥1 adverse event: 5
  Ascites: Total (%): 11.9%
  Asthenia: Number of patients with ≥1 adverse event: 18
  Asthenia: Total (%): 42.9%
  Constipation: Number of patients with ≥1 adverse event: 6
  Constipation: Total (%): 14.3%
  Cough: Number of patients with ≥1 adverse event: 5
  Cough: Total (%): 11.9%
  Diarrhea: Number of patients with ≥1 adverse event: 17
  Diarrhea: Total (%): 40.5%
  Dyspnea: Number of patients with ≥1 adverse event: 9
  Hypoalbuminemia: Number of patients with ≥1 adverse event: 5
  Hypoalbuminemia: Total (%): 11.9%
  Leukopenia: Number of patients with ≥1 adverse event: 6
  Leukopenia: Total (%): 14.3%
  Lymphopenia: Number of patients with ≥1 adverse event: 7
  Lymphopenia: Total (%): 16.7%
  Nausea: Number of patients with ≥1 adverse event: 18
  Nausea: Total (%): 42.9%
  Neutropenia: Number of patients with ≥1 adverse event: 8
  Neutropenia: Total (%): 19.0%
  Pyrexia: Number of patients with ≥1 adverse event: 7
  Pyrexia: Total (%): 16.7%
  Rash: Number of patients with ≥1 adverse event: 9
  Rash: Total (%): 21.4%
  Vomiting: Number of patients with ≥1 adverse event: 14
  Vomiting: Total (%): 33.3%
  Weight decreased >10%: Number of patients with ≥1 adverse event: 5
  Weight decreased >10%: Total (%): 11.9%
[4]; iv 2-hour infusion every 2 weeks
  recommended Phase II dose (RP2D): 313 mg/m^2
[4]; iv every 2 weeks, patients with advanced/metastatic solid tumors
  maximum tolerated dose (MTD): 313 mg/m^2
[5]; 42 patients
  objective response: No patient
[5]; 95% CI 3–17 months
  median progression-free survival: 11 months
[5]; in vivo
  patients with stable disease status maintained for six cycles or longer: seven
[6]
  histamine release: histamine release induced
[7]; 3 mg/m2
  Tmax: 0.25 h
[7]; 6 mg/m2
  Tmax: 1 h
[7]; 12 mg/m2
  Tmax: 0.97 h
[7]; 24 mg/m2
  Tmax: 0.98 h
[7]; 32 mg/m2
  Tmax: 1.11 h
[7]; 42 mg/m2
  Tmax: 1.32 h
[7]; 56 mg/m2
  Tmax: 0.96 h
[7]; 75 mg/m2
  Tmax: 1.44 h
[7]; 100 mg/m2
  Tmax: 1.31 h
[7]; 133 mg/m2
  Tmax: 0.99 h
[7]; 177 mg/m2
  Tmax: 1.45 h
[7]; 235 mg/m2
  Tmax: 1.27 h
[7]; 313 mg/m2
  AUC(0-inf): 439 µg·h/mL
  Tmax: 1.68 h
[7]; 416 mg/m2
  Tmax: 2.47 h
[8]; all doses
  changes in QRS morphology or interval measurements: no clinically significant drug-related changes
  instances of postdose QTc >450 ms: four
  instances of postdose QTc >500 ms: no instances
[8]; one patient, 416 mg/m^2, cycle 3, predose QTc 391 ms
  QTc at the end of dosing: 484 ms

Source: PMC5123727 (International Journal of Nanomedicine, 2016)
